Reference: publication PMC6242908

target: MBP-KRIPP11-His6 (Trypanosoma brucei) (UniProt Q57YK5); assay: fluorescence anisotropy; details: DNA; FA: 20 mM Tris-HCl pH 7.5, 150 mM KCl, 5 mM MgCl2, 1 mM DTT, 20 nM RNA/DNA, 25 C; EMSA: same buffer with BSA and RNAsin, 150 nM RNA/DNA, 2% tris-glycine …

Which Kd does the source give for GGGGGGGGGGGG [dG12] here?
The Kd was 1880 nM.

same assay, conditions: FA: 20 mM Tris-HCl pH 7.5, 150 mM KCl, 5 mM MgCl2, 1 mM DTT, 20 nM RNA/DNA, 25 C; EMSA: same buffer with BSA and RNAsin, 150 nM RNA/DNA, 2% tris-glycine …

GGGG [G4 RNA] was tested. Which Kd did it give?
The Kd was 3420 nM.

With GGGGCCUUUAAA [G4C2U3A3] as the sequence, how does the Kd read?
Its Kd is 2210 nM.

For GGGGGG [G6 RNA], which Kd is on record?
The Kd was 1070 nM.

Which Kd does the source give for GGGGGGCCUUAA [G6C2U2A2] here?
The Kd was 930 nM.

With GGGGGGGGG [G9 RNA] as the sequence, how does the Kd read?
Its Kd is 1870 nM.

For GGGGGGGGGGGG [G12 RNA (native)], which Kd is on record?
Its Kd is 660 nM.

GGUGGUGGUGGU [(GGU)4] was tested. Which Kd did it give?
Its Kd is 6550 nM.
